In patent publication US12098198 (ABION, dated 2024):

Columns and labels:
[1] = target: T1, human claudin 3 (human, UniProt O15551 1-220); experiment: LigandTracer Green, FITC-conjugated antibody on hCLDN3/HEK293 cells against HEK293, 1:1 two state model
T1 construct: cell lysate in the immunoprecipitation; also called CLDN3; hCLDN3
T1 sequence: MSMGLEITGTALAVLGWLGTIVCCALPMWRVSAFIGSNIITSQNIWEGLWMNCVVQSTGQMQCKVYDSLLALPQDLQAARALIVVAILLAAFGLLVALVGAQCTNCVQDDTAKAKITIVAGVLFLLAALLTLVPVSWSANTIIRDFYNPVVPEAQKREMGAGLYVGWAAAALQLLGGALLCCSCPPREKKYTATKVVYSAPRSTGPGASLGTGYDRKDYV

[2] = target: T1, human claudin 3; experiment: LigandTracer Green, FITC-conjugated antibody on hCLDN3/TOV-112D cells against TOV-112D, 1:1 two state model
[3] = target: T1, human claudin 3; experiment: LigandTracer Green, FITC-conjugated antibody on hCLDN3/HEK293 cells against HEK293, 1:1 two state model (ka1)
[4] = target: T1, human claudin 3; experiment: LigandTracer Green, FITC-conjugated antibody on hCLDN3/HEK293 cells against HEK293, 1:1 two state model (kd1)
[5] = target: T1, human claudin 3; experiment: LigandTracer Green, FITC-conjugated antibody on hCLDN3/TOV-112D cells against TOV-112D, 1:1 two state model (ka1)
[6] = target: T1, human claudin 3; experiment: LigandTracer Green, FITC-conjugated antibody on hCLDN3/TOV-112D cells against TOV-112D, 1:1 two state model (kd1)

B1: 4G3 IgG antibody (antibody, V domains shown)
VH: EVQLLESGGGLVQPGGSLRLSCAASGFTFSSYAMSWVRQAPGKGLEWVSIINPSGASTSHAQRFQGRFTISRDNSKNTLYLQMNSLRAEDTAVYYCARYGRYGSFDIWGQGTLVTVSS
VL: QSVLTQPPSASGTPGQRVTISCSGSTSNIGRNYVSWYQQLPGTAPKLLIYDTSNKHFGVPDRFSGSKSGTSASLAISGLRSEDEADYYCQSYDSSKVVFGGGTKLTVL
Kd [1]: 4.03 nM
Kd [2]: 2.35 nM
kon [3]: 46600 M⁻¹ s⁻¹
koff [4]: 0.000671 s⁻¹
kon [5]: 47400 M⁻¹ s⁻¹
koff [6]: 0.000337 s⁻¹
